In PMC5575768:

Target: filamentous actin from rabbit skeletal muscle (rabbit) (UniProt P68135)
Assay: differential scanning calorimetry

**Q.** For “α-tropomyosin D230N, with N-terminal ala-ser (natural protein)”, which melt temperature of the Tm–actin interaction is on record?
**A.** 47.9 °C

**Q.** Which results are given for “α-tropomyosin, wild type, with N-terminal ala-ser (natural protein)”?
**A.** melt temperature of the Tm–actin interaction: 47.2 °C; melt temperature of the Tn–Tm–actin interaction (Tn with cTnT R92L): 47.3 °C
